Test results reported in US8628762B2, “T-helper cell type 17 lineage-specific adjuvants, compositions and methods” (Icahn School of Medicine at Mount Sinai, priority 2008, dated 2014).

Legend:
Naïve CD4 T cells = assay: Intracellular staining (IL-17, IFN-γ, IL-10, Foxp3) of CD4 T cells cultured with DCCM, flow cytometry; format: cell-based, C57BL/6J mice; details: IL-6 added to DCCM-apoptotic B-cells or DCCM-apoptotic neutrophils
Source text: (§1) Naïve CD4 T cells were isolated first by sorting with MACS® CD4^+ beads (Miltenyi Biotech, Auburn, Calif.) according to manufacturer's instructions and then by fluorescence activated cell sorting (FACS) using a MoFlo™, Vantage, or Influx™ cell sorter for CD25^−CD44^lowCD62L^high cells using allophycocyanin (APC)-conjugated anti-CD25 monoclonal antibody (mAb) (clone PC61.5), FITC-conjugated CD62L mAb (clone MEL-14), and PE-Cy5-conjugated CD44 mAb (clone IM7) (all from eBioscience™, San Diego, Calif.). Cells were grown in complete IMDM (Gibco, Carlsbad, Calif.) supplemented with 10% FBS, 100 μg/mL penicillin, 100 μg/mL streptomycin, 2 mM L-glutamine, 10 mM HEPES, and 1 nM sodium pyruvate, and activated on 48-well tissue-culture plates which had been coated with 4 μg anti-CD3 (clone 2C11) for 3 h at 37° C., then washed 3 times with PBS. […]
Because development of Treg cells is reciprocally related to TH17 cells^10 expression of Foxp3, a transcription factor unique to Treg cells^19 was examined. After 3 days of culture with DCCM from the indicated groups, T cells were restimulated with PMA and ionomycin for 4 hours with Brefeldin A before intracellular cytokine staining for IL-17 and IFN-γ was performed, and expression of these cytokines was determined by FACS. […]

Naïve CD4 T-cells = assay: qPCR of lineage genes in naïve CD4 T-cells cultured with DCCM; format: cell-based, C57BL/6J mice; details: quantitative RT-PCR
Source text: as §1, with “PBS. Cultures were supplemented with 2 μg/mL anti-CD28 (clone 37-51, a kind gift from J. Allison, Sloan-Kettering Cancer Center) and anti-IL-4 ascites (clone 11B11, a kind gift from T. Moran, Mount Sinai School of Medicine, ATCC number HB188) at 1:500. mAbs 2C11 and 37-51 were purified from hybridoma supernatants by BioXCell Company (West Lebanon, N.H.). When cultured with conditioned medium (CM) from BMDC, T cells were grown in 1:1 CM:fresh complete IMDM.” for “PBS.”
T cells cultured for 48 hours under the indicated conditions were lysed and RNA isolated by TRIzol® extraction (Invitrogen) according to manufacturer's instructions. […] Quantitative real-time, reverse transcription polymerase chain reaction (qPCR) was conducted on an ABI Prism® 7900 instrument (Applied Biosystems, Foster City, Calif.) with primer pairs and probes as follows. […]
Quantitative PCR was performed using TaqMan® quantitative PCR Master Mix at a concentration of 1× (Applied Biosystems). […] “Fold inductions” were calculated using the ΔΔCt method relative to T cells activated under neutral conditions (No cytokines or CM). […]

B1: IL-6: cytokine interleukin-6 (Peprotech), 50 ng/mL (protein, UniProt P08505 25-211, looked up)
Interleukin-6: FPTSQVRRGDFTEDTTPNRPVYTTSQVGGLITHVLWEIVEMRKELCNGNSDCMNNDDALAENNLKLPEIQRNDGCYQTGYNQEICLLKISSGLLEYHSYLEYMKNNLKDNKKDKARVLQRDTETLIHIFNQEVKDLHKIVLPTPISNALLTDKLESQKEWLRTKTIQFILKSLEEFLKVTLRSTRQT
In the case of B1, the Foxp3 expression (Naïve CD4 T cells) is reported as “markedly impaired Foxp3 expression”, the IL-17 production (Naïve CD4 T cells) is reported as “restored IL-17 production” and the “Foxp3 mRNA induction” value (Naïve CD4 T-cells) is reported as “Foxp3 induction was impaired”.
